{
  "source": "paper PMC3987144",
  "about": "(The Journal of Cell Biology, 2014)",
  "molecules": {"B1": {"name": "His-SNAP25 (natural protein)", "chain": "MPADPSEEVAPQVPKTELEELQINAQGVADESLESTRRMLALCEESKEAGIRTLVALDDQGEQLDRIEEGMDQINADMREAEKNLSGMEKCCGICVLPCNKSQSFKEDDGTWKGNDDGKVVNNQPQRVMDDRNGMMAQAGYIGRITNDAREDEMEENMGQVNTMIGNLRNMALDMGSELENQNRQIDRINRKGESNEARIAVANQRAHQLLK"}, "B2": {"name": "His-n-Syb (neuronal Synaptobrevin, amino acids 1-104) (domain or fragment)", "chain": "MADAAPAGDAPPNAGAPAGEGGDGEIVGGPHNPQQIAAQKRLQQTQAQVDEVVDIMRTNVEKVLERDSKLSELDDRADALQQGASQFEQQAGKLKRKFWLQNLK"}, "B3": {"name": "GST-Syx1A-H3 (Syx1A SNARE domain, 200-267 aa) (domain or fragment)", "chain": "ARHQDIMKLETSIKELHDMFMDMAMLVESQGEMIDRIEYHVEHAMDYVQTATQDTKKALKYQSKARRK"}},
  "key": {"[1]": {"target": "Syx1A (Syntaxin 1A), endogenous (Drosophila melanogaster (endogenous in adult fly heads)) (UniProt Q24547)", "sequence (Q24547 whole entry)": "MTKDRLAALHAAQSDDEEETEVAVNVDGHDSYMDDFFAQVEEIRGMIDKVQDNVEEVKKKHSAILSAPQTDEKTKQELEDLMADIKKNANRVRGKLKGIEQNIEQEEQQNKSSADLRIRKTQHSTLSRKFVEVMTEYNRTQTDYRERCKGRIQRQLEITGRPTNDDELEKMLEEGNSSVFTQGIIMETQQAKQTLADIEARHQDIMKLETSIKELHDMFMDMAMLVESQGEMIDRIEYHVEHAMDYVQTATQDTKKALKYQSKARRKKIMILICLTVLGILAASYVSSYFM", "assay": "co-IP"}, "[2]": {"target": "V100 (neuronal v-ATPase V0 subunit a1), endogenous (Drosophila melanogaster (endogenous in adult fly heads)) (UniProt Q8IML5)", "assay": "co-IP"}, "[3]": {"target": "GST-open Syx1A (Syx1A L168A/E169A mutant, 1-267 aa) (Drosophila melanogaster, UniProt Q24547 1-267, L168A | E169A)", "assay": "pull-down"}, "[4]": {"target": "GST-Syx1A (Syntaxin 1A, 1-267 aa) (Drosophila melanogaster, UniProt Q24547 1-267)", "assay": "pull-down"}, "His-SNAP25": {"target": "B1", "assay": "pull-down"}},
  "data": [
    {"molecule": "V100 (neuronal v-ATPase V0 subunit a1), endogenous (from UniProt Q8IML5 1-833) (natural protein)", "values": [
      {"measurement": "percent of V100 in a complex with Syx1A", "setting": "[1]", "result": "< 50", "unit": "%"}
    ]},
    {"molecule": "B1", "values": [
      {"measurement": "percent of total input in complex with V100 (% of total input)", "setting": "[2]", "result": 1},
      {"measurement": "binding result", "setting": "[3]", "result": "binds"},
      {"measurement": "binding result", "setting": "[4]", "result": "binds"}
    ]},
    {"molecule": "B2", "values": [
      {"measurement": "binding result", "setting": "[4]", "result": "binds"}
    ]},
    {"molecule": "B3", "values": [
      {"measurement": "binding result", "setting": "His-SNAP25", "result": "binds"}
    ]}
  ]
}
